Changes are numbered by the printed parent chain.
B1: cAb028 (antibody, human IgG1, V domains shown)
VH: EVQLQQSGAELVRPGASVKLSCTASGFNIKNDYVHWVKQRPEQGLEWIGYIDPDNGDTEYASKFLGKATITADTSSNTAYLQLSSLTSEGTAVYYCTTDDTSYGMFACWGLGTLVTVSA
VL: DVLMTQTPLSLPVSLGDQASISCRSSQSIVHSNGNTYLEWYLQKPGQSPKLLIYKVSNRFSGVPDRFSGSGSGTDFTLKISRVEAEDLGVYYCFQGSHVPWTFGGGTKLEIK
notes: also called mAb028/cAb028
B2: cAb004 (antibody, human IgG1, V domains shown)
VH: EVQLQQSGAELVRPGASVKLSCTASGFNIKDDYIQWVKQRPEQGLEWIGWIDPENGDTEYASKFQDKATITSDTSSNTAYLQLSSLTSEDTAVYYCAATTFYASNYGFAYWGQGTLVTVSA
VL: B1 VL with L3V, I29L, E39H, K50Q, V83L, Y92F, F94S, G96S, S97T, W101Y
notes: also called mAb004/cAb004
B3: cAb046 (antibody, human IgG1, V domains shown)
VH: EVQLVESGGGLVKPGGSLKLSCAASGFTFSSYAMSWVRQTPEKRLEWVATISEGGSYTYYPDNVKGRFTISRDNARNNLYLQMSHLKSEDTAMYLCVRDNPWFAYWGQGTLVTVST
VL: B1 VL with Q18R, S28N, Y41F, N58K, W101Y
notes: also called mAb046/cAb046
B4: 7G7B6 (antibody, V domains shown)
VH: EVQLVESGGDLVQPRGSLKLSCAASGFTFSSYGMSWVRQTPDKRLELVATINGYGDTTYYPDSVKGRFTISRDNAKNTLYLQMSSLKSEDTAMYFCARDRDYGNSYYYALDYWGQGTSVTVSS
VL: QIVLSQSPAILSASPGERVTMTCRASSSVSFMHWLQQKPGSSPKPWIYATSNLASGVSARFSGSGSGTSYSLTITRVEAEDAATYYCQQWSSNPPAFGGGTKLEIK
B5: PR071 (antibody, human IgG1, kappa, V domains shown)
VH: EVQLVQSGSELKKPGASVKVSCKASGYTFTDYYINWVRQAPGQGLEWMAWIFPGNGNTYFNENFKDRVTLTADKFSSTAYMELSSLRSEDTAVYYCARATYDHGGYWYFDVWGQGTTVTVSS
VL: EIVLSQSPATLSLSPGERATLSCRASSSVSHIHWYQQKPGSSPKPWIYATSNLASGVPGRFSGSGSGTSYSLTVSRVEAEDAATYYCQHWNSFTFGGGTKVEIKR
B6: cAb037 (antibody, human IgG1, V domains shown)
VH: QVRLQQSGPELVKPGASVQMSCKASGYTFTDYYINWVKQRPGQGLEWIAWIFPGNGNTYFNENFKDKATLSVDKFSSTAFMLLSSLTSEDSAVYFCARATYDHGGYWYFDVWGTGTTVTVSS
VL: QIVLSQSPAILSASPGEKVTMTCRASSSVSHIHWYQQKPGSSPKPWIYATSNLASGVPGRFSGSGSGTSYSLTVSRVEAEDAATYYCQHWNSFTFGGGTELELK
notes: also called mAb037/cAb037
B7: cAb001 (antibody, V domains shown)
VH: QVTLKESGPGILQPSQTLSLTCSFSGFSLNTFGMGVGWIRQPSGKGLEWLAHIWWDDDKYYNPALKSRLTISKDTSKNQVFLKIANVDTADTVTYYCARITTEVGNYDVWGMGTTVTVSS
VL: EIVLTQSPALMAASPGEKVTITCSVSSGITSNNLHWYQQKSETSPKPWIYGTSNLASGVPIRFSGSGSGTSYSLTISSMEAEDAATYYCQQWSSYPFTFGSGTKLEIK
notes: also called mAb001/cAb001
B8: cAb029 (antibody, human IgG1, V domains shown)
VH: QVTLKESGPGILQPSQTLSLTCSFSGFSLSTFGMGVGWIRQPSGKGLEWLAHIWWDDDEYYNPALKSRLTISKDTSKNQVFLKIANVDTADTATYYCTRIMLTTGYFDVWGTGTTVTVSS
VL: B7 VL with S24T, N32S, I61V, K104R
notes: also called mAb029/cAb029
B9: cAb002 (antibody, human IgG1, V domains shown)
VH: QVTLKESGPGILQPSQTLSLTCSFSGFSLSTFGLGVGWIRQPSGKGLEWLAQIWWDDDEYYNPALKSRLTISKDTSRNQVFLKIANVDTGDTATYFCARMGDTYWYFDVWGTGTTVAVSS
VL: B7 VL with L4V, A13V, V25L, N32S, I61V, G69K
notes: also called mAb002/cAb002
B10: cAb006 (antibody, human IgG1, V domains shown)
VH: QIQLQQSGAELMKPGASVKLSCKATGYTFTGHWIEWVKQRPGHGLEWVGEILPGSNKINYNEKFKGKATFTAETSSNTVYMQLSSLTTEDSAIYYCAGGGGPHWPFAFWGQGSLVTVSA
VL: DIVLTQSPASLTVSLGQRATISCRASESVNVHGAHLMHWYQQKPGQPPKLLIYAASILESGVPARFSGSGSETDFTLNIHPVEEEDAATYFCQQTIEDPRTFGGGTKLEIK
notes: also called mAb006/cAb006
B11: PR031 (antibody, human IgG1, kappa, V domains shown)
VH: EVQLVQSGAEVKKPGASVKVSCKASGYTFTTYDINWMKQHPGKGLEWIGWIYPRDGSTKYNAKFKGKATLTEDTSANTAYMELSSLRSEDTAVYYCARERIYDGSFDYWGQGTTVTVSS
VL: DIVMTQSPDSLAVSLGERATINCKSSQRLFNSRDQKNYLAWYQQKPGQPPKLLIYGASTRESGVPDRFSGSGSGTDFTLTISSLQAEDVAVYYCQNDHIYPLTFGQGTKLEIKR
B12: cAb042 (antibody, human IgG1, V domains shown)
VH: QVQLQQSGPELVKSGASVKLSCKASGYTFTTYDINWMKQRPGQGLEWIGWIYPRDGSTKYNAKFKGKATLTEDTSSNTAFMELHSLTSEDSAVYFCARERIYDGSFDYWGQGTTLTVSS
VL: DIVMTQSPSSLSVSAGEKVSMRCKSSQRLFNSRDQKNYLAWYQQKPGQPPKLLIYGASTRESGVPDRFTGSGSGTDFTLTISSVQAEDLAVYYCQNDHIYPLTFGAGTKLELK
notes: also called mAb042/cAb042
B13: PR058 (antibody, human IgG1, kappa, V domains shown)
VH: EVQLVESGGGLVQPGGSLRLSCAASGFTFSSYAMSWVRQAPGKRLEWVATISEGGSYTYYPDNVKGRFTISRDNSKNTLYLQMNSLRAEDTAVYLCVRDNPWFAYWGQGTLVTVSS
VL: DVLMTQSPLSLPVTPGEPASISCRSSQNIVHSNGNTYLEWFLQKPGQSPKLLIYKVSKRFSGVPDRFSGSGSGTDFTLKISRVEAEDVGVYYCFQGSHVPYTFGGGTKVEIKR
B14: PR006 (antibody, human IgG1, kappa, V domains shown)
VH: EVQLVQSGAEVKKPGASVKVSCKASGYTFTGHWIEWVRQAPGQGLEWMGEILPGSNKINYNEKFKGRVTFTADTSTSTVYMELSSLRSEDTAVYYCAGGGGPHWPFAFWGQGTLVTVSS
VL: DIVMTQSPDSLAVSLGERATINCRASESVNVHGAHLMHWYQQKPGQPPKLLIYAASILESGVPDRFSGSGSGTDFTLTISSLQAEDVAVYYCQQTIEDPRTFGGGTKVEIKR

Tests used:
[1] = target: T1, recombinant monkey CD25-His protein (monkey (cynomolgus), UniProt H6WS54 1-213); assay: ELISA, plate coated with monkey CD25-His
T1 construct: range 1-213; also called cynomolgus monkey (Cyno) CD25
T1 sequence: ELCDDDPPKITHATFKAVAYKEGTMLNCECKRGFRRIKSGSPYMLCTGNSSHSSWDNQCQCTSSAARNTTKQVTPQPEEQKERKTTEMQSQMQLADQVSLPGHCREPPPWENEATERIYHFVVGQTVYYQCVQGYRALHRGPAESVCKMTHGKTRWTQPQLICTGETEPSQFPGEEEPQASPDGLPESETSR
Protocol: (§1) The binding activity of the chimeric anti-CD25 antibody and the CD25 recombinant protein was assayed by ELISA. The 96-well plate was coated with human CD25-His/monkey CD25-His at a concentration of 1 g/mL at 50 μL/well. The unbound antigen was washed away with a washing solution (1×PBST). After washing, the plate was blocked with 1% BSA blocking solution prepared in 1×PBST at 37° C. for 1 h. After washing 3 times with the washing solution, the test chimeric antibodies at different dilution concentrations was added and incubated in an incubator at 37° C. for 1 h. After washing 3 times with the washing solution, 100 μL of goat anti-human IgG secondary antibody diluted at 1:5000 was added and incubated in an incubator at 37° C. for 0.5 h. The plate were washed, the TMB color developing solutions A and B were mixed in a 1:1 ratio for color development. After 15 min, the color development reaction was terminated with 1M hydrochloric acid, and the fluorescence value at 450 nm was measured.

human CD25 on cells [2] = target: T2, human CD25 on cells (human, UniProt P01589 22-272); assay: flow cytometry on SU-DHL-1 cells
T2 construct: whole, on cells; also called CD25 on SU-DHL-1 cells; CHO-K1-CD25 cells (clone 2F8)
T2 sequence (looked up): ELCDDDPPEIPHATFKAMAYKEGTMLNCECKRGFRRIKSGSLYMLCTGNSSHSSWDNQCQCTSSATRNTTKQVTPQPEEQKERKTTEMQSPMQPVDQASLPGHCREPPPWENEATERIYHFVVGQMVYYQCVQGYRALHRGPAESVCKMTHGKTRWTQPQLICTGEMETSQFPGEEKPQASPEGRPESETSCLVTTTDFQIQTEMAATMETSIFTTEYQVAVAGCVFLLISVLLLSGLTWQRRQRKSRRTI
Protocol: Since the lymphoma cell line SU-DHL-1 highly expresses CD25, the binding of chimeric anti-CD25 antibodies to SU-DHL-1 cells was determined by flow cytometry. SU-DHL-1 cells in logarithmic growth phase were selected, collected, washed with PBS, and centrifuged. Each well was plated with 100 μL of 2×10⁵ cells and centrifuged at 400 g for 5 min. The test antibodies at different concentrations were added, incubated on ice for 1 h, washed with PBS, and centrifuged at 400 g for 5 min.

[3] = target: T3, recombinant human CD25-His protein (human, UniProt P01589 22-213); assay: ELISA, plate coated with human CD25-His
T3 construct: range 22-213; Purchased from Sino Biological Inc. Printed construct Met1-Cys213 includes the signal peptide
T3 sequence (looked up): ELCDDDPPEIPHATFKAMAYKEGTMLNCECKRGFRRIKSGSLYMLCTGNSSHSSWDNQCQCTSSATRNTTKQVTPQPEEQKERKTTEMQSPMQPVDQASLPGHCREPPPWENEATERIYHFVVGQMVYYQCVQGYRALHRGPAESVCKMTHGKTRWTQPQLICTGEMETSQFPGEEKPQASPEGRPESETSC
Protocol: as §1

human CD25 on cells [4] = target: T2, human CD25 on cells; assay: cell-based or functional assay

Row | Binder | EC50 [1] | EC50 (human CD25 on cells [2]) | EC50 [3] | ADCC activity, Multiple of maximum fluorescence value (vs. IgG) (human CD25 on cells [4])
1 | B1 | 0.23 nM | 0.132 nM | 0.344 nM | –
2 | B2 | 0.311 nM | 0.168 nM | 0.255 nM | –
3 | B3 | 5.57 nM | 0.345 nM | 0.355 nM | –
4 | B4 | – | – | – | 13.3 fold
5 | B5 | – | – | – | 322 fold
6 | B6 | 0.147 nM | 0.15 nM | 0.165 nM | –
7 | B7 | 0.399 nM | 0.18 nM | 0.228 nM | –
8 | B8 | 0.115 nM | 0.119 nM | 0.166 nM | –
9 | B9 | 0.524 nM | 0.1 nM | 0.274 nM | –
10 | B10 | 0.234 nM | 0.329 nM | 0.2 nM | –
11 | B11 | – | – | – | 192 fold
12 | B12 | 0.349 nM | 0.501 nM | 0.224 nM | –
13 | B13 | – | – | – | 386 fold
14 | B14 | – | – | – | 239 fold
